The text below walks through data of US20240002464A1 (published 2024).

The labels stand for the following.
T1: HPV16 E6 peptide on HLA-A*02:01 (human)
T1 peptide: TIHDIILECV

B1: TCR1 (TCR, V domains shown)
Valpha: AQKVTQAQTEISVVEKEDVTLDCVYETRDTTYYLFWYKQPPSGELVFLIRRNSFDEQNEISGRYSWNFQKSTSSFNFTITASQVVDSAVYFCALRAGANNLFFGTGTRLTVIP
Vbeta: NAGVTQTPKFQVLKTGQSMTLQCAQDMNHNSMYWYRQDPGMGLRLIYYSASEGTTDKGEVPNGYNVSRLNKREFSLRLESAAPSQTSVYFCASGPWGSSGNTIYFGEGSWLTVV
B2: TCR2 (TCR, V domains shown)
Valpha: B1 Valpha with N100L, L101P, F102V
Vbeta: B1 Vbeta
B3: TCR3 (TCR, V domains shown)
Valpha: B1 Valpha with N100T, L101P, F102I
Vbeta: B1 Vbeta
B4: TCR4 (TCR, V domains shown)
Valpha: B1 Valpha with N99W, N100P, L101M, F102K
Vbeta: B1 Vbeta

Where a chain is given by its changes, count along the chain named.

This assay concerns the target T1, HPV16 E6 peptide on HLA-A*02:01. As to the kind of experiment: Kd or kinetics. The method, then: In this example, the binding activity of the soluble TCR molecule obtained according to Example 2 to the […]-HLA A0201 complex was tested using a BIAcore T200 real-time analysis system. The […]-HLA A0201 complex was prepared by methods well known to those skilled in the art, mainly including purification, renaturation, repurification, and biotinylation. The anti-streptavidin antibody (GenScript) was added to the coupling buffer (10 mM sodium acetate buffer, pH 4.77), and then the antibody was passed through a CMS chip previously activated with EDC and NHS so that the antibody was immobilized on the chip surface, and finally the unreacted activated surface was blocked with a solution of ethanolamine in hydrochloric acid to complete the coupling. The coupling was at a level of about 15,000 RU. A low concentration of streptavidin was allowed to flow through the surface of the chip coated with the antibody, then the […]-HLA A0201 complex was allowed to flow through a detection channel, with the other channel serving as a reference channel. Then 0.05 mM of biotin was allowed to flow through the chip at a flow rate of 10 μL/min for 2 minutes, blocking the remaining binding site for streptavidin.
The kinetic parameters were calculated using the BIAcore Evaluation software to obtain the binding kinetic profiles of the soluble TCR molecules of the present disclosure binding to the […]-HLA A0201 complex, respectively, as shown in FIGS. 7a-7d. […] Also, the binding activity of the soluble TCR molecule of the present disclosure to several complexes of other unrelated antigen short peptides and HLA was also tested by the method.
For the molecule B1, the binding result is reported as “recognises”. B2: the binding result is reported as “recognises”. In the case of B3 it was “recognises”; in that of B4, “recognises”.
